{"source": "patent US20140093892A1", "about": "(KOREA RESEARCH INSTITUTE OF BIOSCIENCE AND BIOTECHNOLOGY, published 2014)", "molecular_target": "T1, CK8 recombinant protein (human cytokeratin 8, tag sequence included) (human, UniProt P05787 1-483)", "T1 construct": "Expressed in E. coli BL21(DE3) as inclusion bodies, dissolved in 8 M urea/PBS; also called KRT8 Keratin, type II cytoskeletal 8", "T1 sequence (looked up)": "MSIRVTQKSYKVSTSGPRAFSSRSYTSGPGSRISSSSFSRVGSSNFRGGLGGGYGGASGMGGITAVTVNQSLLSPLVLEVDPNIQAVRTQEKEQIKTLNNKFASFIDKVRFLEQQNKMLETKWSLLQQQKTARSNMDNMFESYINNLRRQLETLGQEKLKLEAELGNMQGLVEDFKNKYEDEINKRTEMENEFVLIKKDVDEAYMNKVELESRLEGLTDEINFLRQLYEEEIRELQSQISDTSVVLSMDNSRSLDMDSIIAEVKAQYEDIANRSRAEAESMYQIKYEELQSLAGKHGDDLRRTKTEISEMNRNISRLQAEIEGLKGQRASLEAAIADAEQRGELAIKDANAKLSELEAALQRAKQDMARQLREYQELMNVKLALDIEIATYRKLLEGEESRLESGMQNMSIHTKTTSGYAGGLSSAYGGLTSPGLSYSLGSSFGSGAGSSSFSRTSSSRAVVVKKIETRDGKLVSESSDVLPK", "assay": "overlay of recombinant protein solution (50 µg/ml) on blotted partner protein, read out by TAB-K94 reactivity", "data": [{"binder": "CK18 recombinant protein (human cytokeratin 18, tag sequence included) (other, UniProt P05783 1-430, looked up, not shown: small tags and cut ends, Expressed in E. coli BL21(DE3) as inclusion bodies, dissolved in 8 M urea/PBS; also called KRT18 Keratin, type I cytoskeletal 18) MSFTTRSTFSTNYRSLGSVQAPSYGARPVSSAASVYAGAGGSGSRISVSRSTSFRGGMGSGGLATGIAGGLAGMGGIQNEKETMQSLNDRLASYLDRVRSLETENRRLESKIREHLEKKGPQVRDWSHYFKIIEDLRAQIFANTVDNARIVLQIDNARLAADDFRVKYETELAMRQSVENDIHGLRKVIDDTNITRLQLETEIEALKEELLFMKKNHEEEVKGLQAQIASSGLTVEVDAPKSQDLAKIMADIRAQYDELARKNREELDKYWSQQIEESTTVVTTQSAEVGAAETTLTELRRTVQSLEIDLDSMRNLKASLENSLREVEARYALQMEQLNGILLHLESELAQTRAEGQRQAQEYEALLNIKVKLEAEIATYRRLLEDGEDFNLGDALDSSNSMQTIQKTTTRRIVDGKVVSETNDTKVLRH", "values": [{"measurement": "binding result", "value": "binds"}]}]}
